Assay results published in ChEMBL document CHEMBL1122856, “Study on the inhibition of adenosine deaminase” (J Med Chem, 1985).

Substrate: Cc1c([C@@H](C)O)ncn1C1O[C@H](CO)[C@@H](O)[C@H]1O
Description: Ability to inhibit the deamination of adenosine by calf intestine adenosine deaminase expressed as Km

B1: Adenosine deaminase (Bos taurus), P56658 (protein)
chain: MAQTPAFNKPKVELHVHLDGAIKPETILYYGRKRGIALPADTPEELQNIIGMDKPLSLPEFLAKFDYYMPAIAGCREAVKRIAYEFVEMKAKDGVVYVEVRYSPHLLANSKVEPIPWNQAEGDLTPDEVVSLVNQGLQEGERDFGVKVRSILCCMRHQPSWSSEVVELCKKYREQTVVAIDLAGDETIEGSSLFPGHVKAYAEAVKSGVHRTVHAGEVGSANVVKEAVDTLKTERLGHGYHTLEDATLYNRLRQENMHFEVCPWSSYLTGAWKPDTEHPVVRFKNDQVNYSLNTDDPLIFKSTLDTDYQMTKNEMGFTEEEFKRLNINAAKSSFLPEDEKKELLDLLYKAYGMPSPASAEQCL
Km: 39 µM
